Laboratory results from US20230374142A1 (MONASH UNIVERSITY, published 2023).

B1: human/rat chimaeric anti-CLEC9A Ab (clone 4C6) (antibody, V domains shown)
VH: EVQLVESGGGLVQPGGSLKLSCVASGFTFNNYWLAWIRQAPRKGLEWVASITTAAGGTYYPDSVKGRFTISRDNAKSTLYLQMNSLTSEDTATYYCTRVGRDIWDYWGQGVVVTVSS
VL: EILMTQTPVSLPVSLGGQVSFSCRSSQSLLHSDGNTYLHWYLQKPGQSPQLLIWRISNRFSGVPDRFSGSGSGTDFTLKISRVEPEDLGVYYCLQSSHFPPTFGGGTNLEIKR
notes: also called human chimeric anti-Clec9A Ab; original human chimaeric anti-CLEC9A Ab
B2: humanised anti-CLEC9A Ab (Ab1) (antibody, human IgG4 S228P, kappa, V domains shown)
VH: EVQLLESGGGLVQPGGSLRLSCAASGFTFNNYWLAWVRQAPGKGLEWVASITTAAGGTYYPDSVKGRFTISRDNSKNTLYLQMNSLRAEDTAVYYCTRVGRDIWDYWGQGTLVTVSS
VL: DIVMTQTPLSLSVTPGQPASISCKSSQSLLHSDGNTYLHWYLQKPGQPPQLLIWRISNRFSGVPDRFSGSGSGTDFTLKISRVEAEDVGVYYCLQSSHFPPTFGGGTKVEIKR
notes: Human IgG4 / kappa; also called Humanised CLEC9A Ab; humanised anti-CLEC9A antibody

Target: T1, full-length human CLEC9A on transfected 293F cells (human, UniProt Q6UXN8 1-241)
T1 construct: also called cell surface CLEC9A
T1 sequence (Q6UXN8 whole entry): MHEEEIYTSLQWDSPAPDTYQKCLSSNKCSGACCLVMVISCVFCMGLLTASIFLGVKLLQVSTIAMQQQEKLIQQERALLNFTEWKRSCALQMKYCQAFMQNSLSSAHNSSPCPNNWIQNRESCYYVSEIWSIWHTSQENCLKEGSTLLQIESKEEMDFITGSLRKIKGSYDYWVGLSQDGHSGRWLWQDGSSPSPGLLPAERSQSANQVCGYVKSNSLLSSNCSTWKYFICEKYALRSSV
Test: flow cytometry on 293F cells transfected with full-length human CLEC9A

Row | Binder | binding result
1 | B1 | binds
2 | B2 | binds
